Test results as given in patent publication US20120253023A1.

Target: T1, amylin receptor (rat), P32214
T1 chain 1: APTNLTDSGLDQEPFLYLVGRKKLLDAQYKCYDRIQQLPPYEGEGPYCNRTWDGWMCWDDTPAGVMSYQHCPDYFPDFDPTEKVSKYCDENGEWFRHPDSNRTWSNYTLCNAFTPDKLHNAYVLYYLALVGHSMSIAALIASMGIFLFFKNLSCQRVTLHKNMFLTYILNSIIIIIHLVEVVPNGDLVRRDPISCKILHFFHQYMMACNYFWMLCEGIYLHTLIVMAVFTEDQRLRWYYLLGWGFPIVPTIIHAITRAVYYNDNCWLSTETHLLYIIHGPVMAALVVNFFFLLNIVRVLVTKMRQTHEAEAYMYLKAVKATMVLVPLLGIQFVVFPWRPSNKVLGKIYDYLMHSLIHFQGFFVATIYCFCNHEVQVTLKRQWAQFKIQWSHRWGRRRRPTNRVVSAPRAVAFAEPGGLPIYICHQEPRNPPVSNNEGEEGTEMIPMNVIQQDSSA
T1 chain 2: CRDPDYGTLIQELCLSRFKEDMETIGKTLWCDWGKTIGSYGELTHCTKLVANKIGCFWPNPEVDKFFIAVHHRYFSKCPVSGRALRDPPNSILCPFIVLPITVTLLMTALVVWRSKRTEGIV

IC50: 0.083 nM
Binder: DFMGWMDFGKRKCNTATCATQRLANELVRLQTYPRTNVGSNTY (modifications not checked) [DF(P-CH2SO3)… …]
